In data set [1] the target is T1, human retinal guanylyl cyclase RetGC1 (human, UniProt Q02846 52-1103).
T1 sequence (looked up): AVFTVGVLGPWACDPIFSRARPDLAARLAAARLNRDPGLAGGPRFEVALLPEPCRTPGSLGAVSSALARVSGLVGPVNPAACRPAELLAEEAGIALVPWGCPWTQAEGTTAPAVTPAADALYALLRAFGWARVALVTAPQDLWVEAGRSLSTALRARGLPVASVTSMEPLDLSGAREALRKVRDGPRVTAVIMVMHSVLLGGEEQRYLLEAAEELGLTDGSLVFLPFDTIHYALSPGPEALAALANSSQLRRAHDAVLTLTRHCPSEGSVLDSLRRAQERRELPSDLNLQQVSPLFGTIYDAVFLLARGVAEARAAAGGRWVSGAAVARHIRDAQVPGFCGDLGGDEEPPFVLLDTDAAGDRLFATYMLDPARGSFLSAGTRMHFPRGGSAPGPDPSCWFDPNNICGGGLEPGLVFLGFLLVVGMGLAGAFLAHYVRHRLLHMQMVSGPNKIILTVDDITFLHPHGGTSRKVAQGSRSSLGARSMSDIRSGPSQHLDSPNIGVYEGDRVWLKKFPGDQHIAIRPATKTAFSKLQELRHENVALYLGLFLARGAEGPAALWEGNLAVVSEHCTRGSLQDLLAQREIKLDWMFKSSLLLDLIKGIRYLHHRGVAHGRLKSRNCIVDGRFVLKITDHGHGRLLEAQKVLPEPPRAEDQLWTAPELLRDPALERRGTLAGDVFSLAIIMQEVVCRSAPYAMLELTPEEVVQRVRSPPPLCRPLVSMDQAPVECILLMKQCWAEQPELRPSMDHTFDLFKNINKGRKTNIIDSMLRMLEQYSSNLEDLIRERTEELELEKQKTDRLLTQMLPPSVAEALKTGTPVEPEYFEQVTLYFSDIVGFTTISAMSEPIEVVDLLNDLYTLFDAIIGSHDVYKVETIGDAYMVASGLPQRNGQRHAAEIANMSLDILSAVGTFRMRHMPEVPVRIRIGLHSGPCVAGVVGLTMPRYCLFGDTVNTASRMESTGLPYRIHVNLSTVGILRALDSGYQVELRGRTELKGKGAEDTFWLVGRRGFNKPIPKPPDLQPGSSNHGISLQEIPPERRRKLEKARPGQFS

Data set [2] concerns the molecule itself. The data set is described as follows: NMR pulsed-field gradient diffusion; translational diffusion coefficient of spin-labelled GCAP1^CL(T29C); molar mass from D.
In data set [3] the target is T1, human retinal guanylyl cyclase RetGC1. The data set is described as follows: cell-based or functional assay.
Data set [4] concerns the molecule itself. The data set is described as follows: SEC; analytical SEC, Superdex 200 HR 10/30, 100 uL of 200 uM protein, 10 mM Tris pH 7.4, 100 mM NaCl, 1 mM DTT, 4 C, with saturating Mg2+ (2 mM) or Ca2+ (2 mM); molar mass from elution time against protein standards. For orientation: In gel filtration, larger molecules generally elute earlier.
Data set [5] deals with the molecule itself. The data set is described as follows: EPR-DEER; spin-labelled (MTSSL) single-Cys GCAP1 at ~300 uM, 10 mM Tris-d11 pH 7.4, 2 mM MgCl2, D2O, 25% glycerol-d8, frozen, 50 or 80 K; Ca2+-free/Mg2+-bound state, similar data in the Ca2+-bound state; intermolecular spin-label distances.

Read-outs that look alike come from different tables or passages of the source. Where only a bound is given, the exact number is not on record here.

B1: Cys-less mutant of GCAP1 (GCAP1^CL) (natural protein)
chain: MGNIMSGKSVEELSSTETHQWYKKFMTETPSGQLTLYEFRQFFGLKNLSPWASQYVEQMFETFDFNKDGYIDFMEYVAALSLVLKGKVEQKLRWYFKLYDVDGNGTIDRDELLTIIRAIRAINPTSDSTMTAEEFTDTVFSKIDVNGDGELSLEEFMEGVQKDQMLLDTLTRSLDLTRIVRRLQNGEQDEEGASGRETEAAEADG
modifications: N-terminal myristoylation
In the case of B1, the EC50 of activation of RetGC1 (HEK293 membranes) in the absence of Ca2+ (EGTA), guanylyl cyclase assay in data set [1] stood at 14 µM.

B2: GCAP1^CL(T29C), spin-labelled (natural protein, bovine, UniProt P46065 1-205, looked up)
chain: MGNIMSGKSVEELSSTETHQWYKKFMTECPSGQLTLYEFRQFFGLKNLSPWASQYVEQMFETFDFNKDGYIDFMEYVAALSLVLKGKVEQKLRWYFKLYDVDGNGTIDRDELLTIIRAIRAINPTSDSTMTAEEFTDTVFSKIDVNGDGELSLEEFMEGVQKDQMLLDTLTRSLDLTRIVRRLQNGEQDEEGASGRETEAAEADG
modifications: N-terminal myristoylation; MTSSL spin-label on Cys29 (N-O group reduced for the HSQC spectrum)
notes: GCAP1, bovine, D6S background, Cys-less parent (C18, C29, C106, C125 to Thr) in which T29C restores the natural Cys29; also called spin-labeled GCAP1^CL(T29C); source: E. coli BL21(DE3), co-expressed with yeast N-myristoyl CoA transferase, purified, labelled with MTSSL
For orientation: stoichiometry N means the number of molecules, sites or subunits per partner or assembly. In the case of B2, in data set [2], the “stoichiometry N” value came out at 4.

B3: wild type GCAP1 (recombinant bovine myristoylated guanylyl cyclase activating protein 1, D6S) (natural protein, UniProt P46065 1-205, looked up)
chain: MGNIMSGKSVEELSSTECHQWYKKFMTECPSGQLTLYEFRQFFGLKNLSPWASQYVEQMFETFDFNKDGYIDFMEYVAALSLVLKGKVEQKLRWYFKLYDVDGNGCIDRDELLTIIRAIRAINPCSDSTMTAEEFTDTVFSKIDVNGDGELSLEEFMEGVQKDQMLLDTLTRSLDLTRIVRRLQNGEQDEEGASGRETEAAEADG
modifications: N-terminal myristoylation
notes: 15N-labelled for NMR; also called GCAP1 D6S mutant; source: E. coli BL21(DE3), co-expressed with yeast N-myristoyl CoA transferase, purified
As for B3, the “EC50 of activation of RetGC1 (HEK293 membranes) in the absence of Ca2+ (EGTA), guanylyl cyclase assay” value in data set [3] was below 2 µM. For the same molecule, the “stoichiometry N” value in data set [4] was found to be 2.

B4: GCAP1^CL(E154C), nitroxide spin-labelled (natural protein, bovine, UniProt P46065 1-205, looked up)
chain: MGNIMSGKSVEELSSTETHQWYKKFMTETPSGQLTLYEFRQFFGLKNLSPWASQYVEQMFETFDFNKDGYIDFMEYVAALSLVLKGKVEQKLRWYFKLYDVDGNGTIDRDELLTIIRAIRAINPTSDSTMTAEEFTDTVFSKIDVNGDGELSLCEFMEGVQKDQMLLDTLTRSLDLTRIVRRLQNGEQDEEGASGRETEAAEADG
modifications: N-terminal myristoylation; MTSSL nitroxide spin-label on Cys154
notes: GCAP1, bovine, D6S background, Cys-less (all four native Cys C18, C29, C106, C125 to Thr), with a single Cys at 154; source: E. coli BL21(DE3), co-expressed with yeast N-myristoyl CoA transferase, purified, labelled with MTSSL
B4: the binding result in data set [5] is listed as “binds”.

B5: GCAP1^CL(E133C), nitroxide spin-labelled (natural protein, bovine, UniProt P46065 1-205, looked up)
chain: MGNIMSGKSVEELSSTETHQWYKKFMTETPSGQLTLYEFRQFFGLKNLSPWASQYVEQMFETFDFNKDGYIDFMEYVAALSLVLKGKVEQKLRWYFKLYDVDGNGTIDRDELLTIIRAIRAINPTSDSTMTACEFTDTVFSKIDVNGDGELSLEEFMEGVQKDQMLLDTLTRSLDLTRIVRRLQNGEQDEEGASGRETEAAEADG
modifications: N-terminal myristoylation; MTSSL nitroxide spin-label on Cys133
notes: GCAP1, bovine, D6S background, Cys-less (all four native Cys C18, C29, C106, C125 to Thr), with a single Cys at 133; source: E. coli BL21(DE3), co-expressed with yeast N-myristoyl CoA transferase, purified, labelled with MTSSL
Regarding B5, the binding result in data set [5] was “binds”.

B6: GCAP1^CL(E57C), nitroxide spin-labelled (natural protein, bovine, UniProt P46065 1-205, looked up)
chain: MGNIMSGKSVEELSSTETHQWYKKFMTETPSGQLTLYEFRQFFGLKNLSPWASQYVCQMFETFDFNKDGYIDFMEYVAALSLVLKGKVEQKLRWYFKLYDVDGNGTIDRDELLTIIRAIRAINPTSDSTMTAEEFTDTVFSKIDVNGDGELSLEEFMEGVQKDQMLLDTLTRSLDLTRIVRRLQNGEQDEEGASGRETEAAEADG
modifications: N-terminal myristoylation; MTSSL nitroxide spin-label on Cys57
notes: GCAP1, bovine, D6S background, Cys-less (all four native Cys C18, C29, C106, C125 to Thr), with a single Cys at 57; source: E. coli BL21(DE3), co-expressed with yeast N-myristoyl CoA transferase, purified, labelled with MTSSL
For the molecule B6, the binding result in data set [5] is given as “binds”.

Values taken from article PMC5841803, “Retinal guanylyl cyclase activating protein 1 forms a functional dimer” (PLoS ONE, 2018).
